Results as given in US6114506, “Composition and method for enhancing fibrinolysis” (General Hospital Corporation, dated 2000).

T1: human alpha-2-antiplasmin (human, UniProt P08697, 125I label in the radioimmunoassays of Example 1; biotin in the competition assay of Example 5; unlabelled in the ELISA, plasmin and clot lysis assays)
T1 sequence: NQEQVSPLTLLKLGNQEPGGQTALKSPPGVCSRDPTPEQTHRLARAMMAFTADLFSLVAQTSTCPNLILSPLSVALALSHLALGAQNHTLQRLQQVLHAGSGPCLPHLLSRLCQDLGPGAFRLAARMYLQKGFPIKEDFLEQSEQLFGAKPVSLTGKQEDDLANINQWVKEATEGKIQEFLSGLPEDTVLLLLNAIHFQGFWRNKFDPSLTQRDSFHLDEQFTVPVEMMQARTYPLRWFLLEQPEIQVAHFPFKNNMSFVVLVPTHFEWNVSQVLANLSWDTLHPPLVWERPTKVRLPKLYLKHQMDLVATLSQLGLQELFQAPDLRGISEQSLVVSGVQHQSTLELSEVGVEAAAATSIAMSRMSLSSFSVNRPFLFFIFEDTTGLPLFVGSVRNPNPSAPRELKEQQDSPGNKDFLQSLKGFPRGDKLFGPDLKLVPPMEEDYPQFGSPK


What was measured:
[1] = target: T1, human alpha-2-antiplasmin
[2] = target: T1, human alpha-2-antiplasmin; assay: ELISA: plates coated with α2-antiplasmin (American Diagnostica), anti-human kappa conjugate

plasmin assay with chromogenic substrate: loss in activity [1] | binding result [2] | Binder
20 to 30% |  | h77A3-2 (humanized 77A3) (antibody, V domains shown) VH: QIQLVQSGAEVKKPGASVKISCKASGYTFTNYGMNWVRQAPGQGLEWMGWINTKSGEPTYAEEFKGRFTFTLDTSTSTAYLEIRSLRSDDTAVYFCARW VL: DIQMTQSPSSLSASVGDRVTITCRASGNIHNYLAWYQQKQGKSPQLLVYNAKTLASGVPSRFSGSGSGTDFTLTISSLQPEDFGSHY
 | binds | h77A3-1 (humanized 77A3) (antibody, V domains shown) VH: QIQLVQSGSELKKPGASVKISCKASGYTFTNYGMNWVRQAPGQGLEWMGWINTKSGEPTYAEEFKGRFVFSLDTSVTTAYLQISSLKAEDTAVYFCARWVPGTYAMDYWGQGTTVTVSS VL: DIQMTQSPSSLSASVGDRVTITCRASGNIHNYLAWYQQKQGKSPQLLVYNAKTLASGVPSRFSGSGSGTDFTLTISSLQPEDFGSHYCQHFWTTPWTFGGGTKLEIK
